How the values were obtained:
CD38 on cells (human) [1] = target: CD38 on cells (human) (UniProt P28907); test: flow cytometry, Raji cells expressing CD19 and CD38
CD38 on cells (human) [2] = target: CD38 on cells (human) (UniProt P28907); test: flow cytometry, Raji cells; adjusted fit with the top asymptote fixed at about the maximum response of Darzalex
CD38 on cells (human) [3] = target: CD38 on cells (human) (UniProt P28907); test: flow cytometry, Raji cells expressing CD19 and CD38; remark: listed apart in the source
CD38 on cells (human) [4] = target: CD38 on cells (human) (UniProt P28907); test: flow cytometry, Raji cells expressing CD19 and CD38 (negative control)
CD19 on cells (human) = CD19 on cells (human) (UniProt P15391); test: as above
CD19 on cells (human), sequence (P15391 20-556): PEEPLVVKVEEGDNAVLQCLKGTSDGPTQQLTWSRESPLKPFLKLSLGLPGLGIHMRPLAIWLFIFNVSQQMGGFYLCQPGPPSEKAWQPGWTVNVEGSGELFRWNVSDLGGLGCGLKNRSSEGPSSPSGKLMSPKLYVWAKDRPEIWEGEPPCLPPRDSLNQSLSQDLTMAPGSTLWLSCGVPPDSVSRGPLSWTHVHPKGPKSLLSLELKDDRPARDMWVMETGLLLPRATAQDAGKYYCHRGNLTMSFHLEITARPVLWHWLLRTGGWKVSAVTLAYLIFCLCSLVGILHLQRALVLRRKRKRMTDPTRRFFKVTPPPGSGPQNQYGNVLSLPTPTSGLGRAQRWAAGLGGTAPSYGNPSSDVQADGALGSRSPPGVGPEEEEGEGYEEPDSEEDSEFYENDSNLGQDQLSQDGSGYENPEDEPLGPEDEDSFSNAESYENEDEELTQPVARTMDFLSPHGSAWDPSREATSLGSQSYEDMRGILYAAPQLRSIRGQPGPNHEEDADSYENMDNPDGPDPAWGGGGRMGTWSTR

Substance	EC50 (CD38 on cells (human) [1]) [µg/mL]	Max MFI (CD38 on cells (human) [1]) [MFI]	EC50 (CD38 on cells (human) [2]) [nM]	EC50 (CD38 on cells (human) [3]) [nM]	EC50 (CD38 on cells (human) [4]) [µg/mL]	Max MFI (CD38 on cells (human) [4]) [MFI]	EC50 (CD19 on cells (human)) [µg/mL]	Max MFI (CD19 on cells (human)) [MFI]
Darzalex (antibody)	0.195	4.02e+06	1.27	1.27	–	–	–	–
IgG1 isotype control (antibody)	–	–	–	–	4620	38700	4620	38700

Source: patent US20210269545A1
